{
  "source": "patent US8012471B2",
  "about": "“Screening and treatment methods using IGS5 enzymes of the metalloprotease family” (Abbott Healthcare Products B.V., priority 1999, dated 2011)",
  "format_in_all_cases": "biochemical",
  "key": {"[1]": {"target": "T1, IGS5 polypeptide (His6-tagged IGS5 ectodomain) (Homo sapiens, UniProt Q495T6, V306M)", "T1 construct": "made in house; host or cells: Spodoptera frugiperda Sf9 (baculovirus IGBV73)", "T1 sequence (Q495T6 with tags, fused parts or gaps V306M)": "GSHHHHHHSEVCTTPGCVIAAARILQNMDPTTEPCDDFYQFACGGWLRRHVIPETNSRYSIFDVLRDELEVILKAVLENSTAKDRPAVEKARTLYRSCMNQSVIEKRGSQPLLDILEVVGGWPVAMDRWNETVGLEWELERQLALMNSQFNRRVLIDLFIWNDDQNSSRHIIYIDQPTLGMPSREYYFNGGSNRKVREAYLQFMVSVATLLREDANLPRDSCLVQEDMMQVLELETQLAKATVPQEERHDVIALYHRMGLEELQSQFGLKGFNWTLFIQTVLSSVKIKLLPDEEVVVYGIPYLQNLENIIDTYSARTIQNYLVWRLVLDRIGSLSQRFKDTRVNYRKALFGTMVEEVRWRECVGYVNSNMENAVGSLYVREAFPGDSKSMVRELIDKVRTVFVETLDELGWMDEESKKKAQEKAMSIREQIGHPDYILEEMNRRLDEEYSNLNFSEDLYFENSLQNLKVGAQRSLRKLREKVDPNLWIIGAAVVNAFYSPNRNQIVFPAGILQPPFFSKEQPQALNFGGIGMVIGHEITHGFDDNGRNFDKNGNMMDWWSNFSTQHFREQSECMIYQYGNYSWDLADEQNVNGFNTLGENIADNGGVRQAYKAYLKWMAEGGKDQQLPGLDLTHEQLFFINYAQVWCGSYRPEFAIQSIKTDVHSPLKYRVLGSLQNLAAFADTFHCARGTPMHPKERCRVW", "experiment": "Hydrolysis of vasoactive peptides and PACAP(1-27) by IGS5 polypeptide (HPLC)", "conditions": "100 μl assay volume; 100 ng IGS5 polypeptide; 0.5 μM substrate; 2 h, 37° C.", "experimental": "The enzymatic activity of IGS5 polypeptides of the invention was tested with regard to the metabolism of biologically active peptides. In particular it was tested whether these IGS5 polypeptides may act on a variety of vasoactive peptides known in the state of the art e.g. such like atrial natriuretic peptide (ANP), bradykinin, big endothelin (Big ET-1), endothelin (ET-1), substance P and angiotensin-1. In the context of the present invention in particular it was tested whether the IGS5 ectodomain, which is a novel human metalloprotease, hydrolyzes said vasoactive peptides. For comparison the assay was also performed for a known member of the metalloprotease family which was described earlier as soluble secreted endopeptidase (SEP) by Ikeda, Emoto et al. (J. Biol. Chem., Vol. 274 (1999): pp. 32469-32477). Furthermore, it was tested whether the activity of IGS5 to convert a Big-ET-1 analogue (the so-called 17 aa Big-ET) may be inhibited by reference compounds that are used to determine the inhibition properties with regard to enzymes having ECE and/or NEP-characteristics. […] It was then checked whether the activity of IGS5 to convert PACAP(1-27) may be inhibited by a compound known to be a IGS5 inhibitor. The compound used to test the inhibition of IGS5-activity on PACAP(1-27) was the active metabolite of (3S,2′R)-3-{1-[2′-(ethoxycarbonyl)-4′-phenylbutyl]-cyclopentane-1-carbonylamino}-2,3,4,5-tetrahydro-2-oxo-1H-1-benzazepine-1-acetic acid (compound Ia-2 from WO 02/094176).\nThe enzymatic reaction was subsequently terminated by heating to 95° C. for 5 min. After centrifugation (Heraeus Biofuge B, 3 min) the supernatant was subjected to HPLC\nIn order to separate the remaining substrate from the cleavage products reversed phase HPLC technique was used with a CC 125/4 Nucleosil 300/5 C18 RP column and a CC 8/4 Nucleosil 100/5 C18 precolumn (commercially available from Macherey-Nagel, Duren, Germany). Thus, 60 μl of the reaction samples obtained in Example 7B were injected into the HPLC, and the column was eluted at a flow rate of 1 ml/min by applying the following gradient and solutions: […]\nPeptides were detected by absorbance at 214 nm (UV spectroscopy) and/or by fluorescence with an excitation wavelength of 328 nm and an emission wavelength of 393 nm.\n% Hydrolysis: For detection of substrate cleavage, the percentage of hydrolysis was calculated by directly comparing the substance peak areas in HPLC traces of the sample without addition of any IGS5 enzyme activity (blank) and of the samples with addition of IGS5 enzyme (sample). % hydrolysis was calculated on basis of the respective peak areas. % hydrolysis=100*(1−(Asample/Ablank))"}, "ECE-1": {"target": "T2, ECE-1 (Homo sapiens, UniProt P42892)", "T2 sequence (P42892 1-770)": "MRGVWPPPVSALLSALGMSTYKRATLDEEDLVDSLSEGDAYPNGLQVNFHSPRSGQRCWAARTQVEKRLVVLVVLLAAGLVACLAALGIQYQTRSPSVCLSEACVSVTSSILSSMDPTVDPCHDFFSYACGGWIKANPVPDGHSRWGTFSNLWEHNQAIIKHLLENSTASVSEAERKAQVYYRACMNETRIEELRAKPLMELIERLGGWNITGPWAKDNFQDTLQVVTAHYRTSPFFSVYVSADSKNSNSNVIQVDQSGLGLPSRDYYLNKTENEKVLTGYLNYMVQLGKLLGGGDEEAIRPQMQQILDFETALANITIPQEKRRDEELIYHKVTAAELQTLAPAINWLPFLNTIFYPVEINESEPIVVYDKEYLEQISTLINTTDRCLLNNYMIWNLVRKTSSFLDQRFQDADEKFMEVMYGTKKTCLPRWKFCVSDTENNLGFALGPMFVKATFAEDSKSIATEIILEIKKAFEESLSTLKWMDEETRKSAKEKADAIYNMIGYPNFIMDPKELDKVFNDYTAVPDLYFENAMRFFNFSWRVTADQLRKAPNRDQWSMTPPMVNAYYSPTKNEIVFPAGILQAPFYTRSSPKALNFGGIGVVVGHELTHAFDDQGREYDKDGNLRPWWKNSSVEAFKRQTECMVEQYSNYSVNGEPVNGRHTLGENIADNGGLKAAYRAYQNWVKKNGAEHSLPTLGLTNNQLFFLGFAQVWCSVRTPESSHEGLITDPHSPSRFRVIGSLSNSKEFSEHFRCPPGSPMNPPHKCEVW", "experiment": "PACAP(1-27) cleavage by recombinantly produced ECE-1", "conditions": "assay conditions as for IGS5", "experimental": "(§1) A quantity of 80 μl of the assay buffer, 10 μl of enzyme working solution (5 μg/ml) and 10 μl of substrate stock solution (PACAP(1-27)) were mixed in an Eppendorf vial and incubated for 120 min. at 37° C. The enzymatic reaction was subsequently terminated by heating to 95° C. for 5 min. After centrifugation (Heraeus Biofuge B, 3 min) the supernatant was subjected to HPLC\n(§2) In addition, it was also analysed whether PACAP(1-27) is cleaved by other recombinantly produced metalloproteases of the M13 family, such as NEP, ECE-1 and XCE/DINE. […] The data summarized herein indicate that PACAP(1-27) might be the physiologically relevant substrate of hSEP."}, "NEP": {"target": "NEP (Homo sapiens, UniProt P08473)", "sequence (P08473 whole entry)": "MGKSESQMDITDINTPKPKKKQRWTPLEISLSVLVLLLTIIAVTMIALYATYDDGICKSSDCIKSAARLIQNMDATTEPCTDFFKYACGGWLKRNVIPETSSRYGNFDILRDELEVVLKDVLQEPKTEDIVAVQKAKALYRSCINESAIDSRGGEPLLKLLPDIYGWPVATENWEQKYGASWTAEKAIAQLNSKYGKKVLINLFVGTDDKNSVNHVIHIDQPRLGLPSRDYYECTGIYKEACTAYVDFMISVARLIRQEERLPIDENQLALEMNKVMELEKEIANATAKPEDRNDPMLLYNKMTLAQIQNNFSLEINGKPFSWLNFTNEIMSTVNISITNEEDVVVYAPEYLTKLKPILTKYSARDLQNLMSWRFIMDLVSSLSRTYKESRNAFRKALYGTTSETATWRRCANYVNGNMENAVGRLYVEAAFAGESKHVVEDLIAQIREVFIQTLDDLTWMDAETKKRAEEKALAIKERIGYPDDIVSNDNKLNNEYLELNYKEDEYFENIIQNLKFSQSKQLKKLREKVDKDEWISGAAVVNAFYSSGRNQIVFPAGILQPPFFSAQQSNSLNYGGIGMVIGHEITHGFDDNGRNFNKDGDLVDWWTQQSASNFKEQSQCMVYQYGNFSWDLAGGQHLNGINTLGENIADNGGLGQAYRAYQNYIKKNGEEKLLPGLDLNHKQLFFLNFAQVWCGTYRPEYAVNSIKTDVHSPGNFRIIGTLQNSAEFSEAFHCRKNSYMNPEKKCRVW", "experiment": "PACAP(1-27) cleavage by recombinantly produced NEP", "conditions": "assay conditions as for IGS5", "experimental": "as §1, §2"}, "XCE/DINE": {"target": "T3, XCE/DINE (Homo sapiens, UniProt O95672)", "T3 sequence (O95672 1-775)": "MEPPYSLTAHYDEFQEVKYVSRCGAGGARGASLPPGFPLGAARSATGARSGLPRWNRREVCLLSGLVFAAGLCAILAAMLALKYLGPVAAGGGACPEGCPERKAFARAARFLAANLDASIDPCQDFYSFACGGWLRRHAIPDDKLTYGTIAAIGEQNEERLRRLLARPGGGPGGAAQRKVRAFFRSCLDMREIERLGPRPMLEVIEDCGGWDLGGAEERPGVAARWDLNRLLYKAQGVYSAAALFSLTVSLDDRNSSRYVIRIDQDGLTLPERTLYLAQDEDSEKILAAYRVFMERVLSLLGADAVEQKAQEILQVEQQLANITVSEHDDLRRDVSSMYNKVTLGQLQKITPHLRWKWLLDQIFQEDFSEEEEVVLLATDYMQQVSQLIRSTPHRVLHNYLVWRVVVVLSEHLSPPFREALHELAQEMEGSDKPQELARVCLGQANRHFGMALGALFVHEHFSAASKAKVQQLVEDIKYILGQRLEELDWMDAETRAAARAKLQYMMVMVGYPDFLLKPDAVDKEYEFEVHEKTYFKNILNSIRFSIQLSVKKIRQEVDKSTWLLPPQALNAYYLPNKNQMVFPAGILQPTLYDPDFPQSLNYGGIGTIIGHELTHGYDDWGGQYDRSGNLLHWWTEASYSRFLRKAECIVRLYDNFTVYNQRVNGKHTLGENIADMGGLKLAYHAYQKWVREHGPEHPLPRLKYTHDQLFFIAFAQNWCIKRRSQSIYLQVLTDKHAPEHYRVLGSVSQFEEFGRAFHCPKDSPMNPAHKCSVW", "experiment": "PACAP(1-27) cleavage by recombinantly produced XCE/DINE", "conditions": "assay conditions as for IGS5", "experimental": "as §1, §2"}},
  "data": [
    {"substance": "His-Ser-Asp-Gly-Ile-Phe-Thr-Asp-Ser-Tyr-Ser-Arg-Tyr-Arg-Lys-Gln-Met-Ala-Val-Lys-Lys-Tyr-Leu-Ala-Ala-Val-Leu [PACAP (1-27)]", "values": [
      {"measurement": "% Hydrolysis by IGS5 Polypeptide", "setting": "[1]", "result": 69, "unit": "%"},
      {"measurement": "Cleavage of PACAP(1-27) by ECE-1", "setting": "ECE-1", "result": "None of the aforementioned enzymes was able to cleave"},
      {"measurement": "Cleavage of PACAP(1-27) by NEP", "setting": "NEP", "result": "None of the aforementioned enzymes was able to cleave"},
      {"measurement": "Cleavage of PACAP(1-27) by XCE/DINE", "setting": "XCE/DINE", "result": "None of the aforementioned enzymes was able to cleave"}
    ]}
  ]
}
